Assay: yeast display, Sf9 membrane polyspecificity reagent, FACS + sequencing; frameworks hold sequencing errors
Outline: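 Polyreactivity labels are assigned by the sorting gate from which each nanobody was recovered. The gates were low and high (top ~1%), set on anti-HA fluorescence for expression and streptavidin fluorescence for reagent binding. Before sorting, galactose-induced (36–48 hours) yeast display cells were stained for 1 hour at 4 °C with 10% biotinylated, detergent-solubilized Sf9 membrane reagent.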

Row | Sequence | polyreactivity (PSR sort gate)
1 | QVQLVESGGGLVQAGGSLRISCAASGRTFYDNTMGWYRQAPGKERELVAAINWSGTRTYYADSVKARFTISRDNAKNTVYLQMNSLKPEDTAVYYCAADGPFRRTYGYWGLGTQVTVSS | low polyreactivity
2 | QVQLVESGGGLVQAGGSLRLSCAASGIIFFKNAMGWYRQAPGKERELVAAISSTDTRTYYADSVKGRFTISRDNAKNTVYLQMNSLKPEDTAVYYCAASRRGGGLDYWGQGTQVTVSS | high polyreactivity
3 | QVQLVESGGGLVQAGGSLRLSCAASGFIFRGNAMGWYRQAPGKERELVAAISWSGGNTYYADSVKGRFTISRDNAKNTVYLQMNSLKPEDTAVYYCAAGATWSRQGSIRYNYWGQGTQVTVSS | high polyreactivity
4 | QVQLVESGGGLVQAGGSLRLSCAASGRTFSNYAMGWYRQAPGKERELVAAITGSGGSTYYADSVKGRFTISRDNAKNTVYLQLISLKPEDTAVYYCNAYRASKYLTGNGHDYWGQGTQVTVSS | low polyreactivity
5 | QVPLVESGGGLVQAGGSLRLSCAASGSTLAANAMGWYRQAPGKERELVAAIDGGGSTYYADSVKGRFTISRDNAKNTVYLQMNILKPDDTAVYYCATPYVWTITQKKYDYWGQGTQVTVSS | low polyreactivity
6 | QVQLVESGGGLVQAGGSLRLSCAASGRTFASYMGWYRQAPWKERELVAAINWSGGTTYYADSVKGRFTISRDNAKNSVYLQMNSLKPEDTAVYYCNKLGYQSRGDYWGQGTQVTVSS | high polyreactivity
7 | QDQLEESGGGLVQAGGSLRLSCGASGSIYDTNDMGWYRQAPGKERELVSAISSGGNTNYADSVKGRFTISRDNAKNTVYLQMKSVKPEDTAVYYWAAVWLGVYSVWTYHHYDYWGQGTQVTVSS | low polyreactivity
8 | QVQLVESGGGLVQAGGSLRLSCAASGRIFLQYAMGWYRQAPGKERELVAGISSRGGSTYYADSVKGRFTISRDNAKNTVYLQMNSLKPEDTAVYYCAAQTKRIRYVYKHYYWGQGTQVTVSS | high polyreactivity
9 | QVQLVESGGGLVQAGGSLRLSCAASGRIFYGYAMGWYRQAPGKERELVAAISWRGGRTYYADSVKGRFTISRDNAKNTVYLQMNSLKPEDTAVYYCNKDFPPQGQLRNMYYWGQGTQVTVSS | high polyreactivity
10 | QVQLVESGGGLVQAGGSLRLSCAASGSIFDTYAMGWYRQAPGKERELVAAITRRAGSTYYADSVKGRFTISRDNAKNTVYLQMNSLKPEDTPVYYGAAGYDRYPGVIDEYWGQGTEVTVSS | low polyreactivity
11 | QVQLVESGGGLVQAGGSLRLSCAASGNTFYTYGMGWYRQAPGKERELVAAINHNGGSTYYADSVKARFTISRDNAKNTVYLQMNSLKPEDTAVYYCNADYSTYVERGSSVYYWYDYWGQGTQVTVSS | low polyreactivity
12 | QVQLVESGGGLVQAGGSLRLSCAASGFIFYQYAMGWYRQAPGKERELVATISFRGGRTYYADSVKGRFTISRDNAKNTVYLQMNSLKPEDTAVYYCNAKRVSSRFYKWDYYWGQGTQVTVSS | high polyreactivity
13 | QVQLVESGGGLVQAGGSLRLSCAASGSTQTVNVMGWYRQAPGKEREFVAAINDSGSTYYADSVKGRFTISRDNAKNTVYLQMNSLKPEDTAVYYCATYYWLGLSLYDYWGQGTQVTVSS | low polyreactivity
14 | QVQLVESGGGLVQAGGSLRLSCAASGFTFNANAMGWYRQAPGKERELVADISLSGGRTYYADSVKGRFTISRDNAKNTVYLQMNSLKPEDTAVYYCAASPDGSFRRFSRVVSGDYWGQGTQVTVSS | high polyreactivity
15 | QVQLVESGGGLVQAGGSLRLSCAASGFTLSRYVMGWYRQAPGKERELVATISTDTGDTYYADSVKGRFTISRDNAKNTVYLQMNSLKPEDTAVYYCAVEEWYIYLDLYWSYYYWGQGTQVTVSS | high polyreactivity
16 | QVQLVESGGGLVQAGGSLRLSCAASGFIIYGYVMGWYRQAPGKERELVAAINSSSGRTYYADSVKGRFTISRDNAKNTVYLQMKSLKPEDTAVYYCAAYYYGSYDGTPYDYWGQGTQVTVSS | low polyreactivity
17 | QVQLVESGGGLVQAGGSLRLSCAASGYIFRYYAMGWYRQAPGKERELVAAISWNGGRTYYADSVKGRFTISRDNAKNTVYLQMNSLKPEDTAVYYCNTYWDGAREYDYWGQGTQVTVSS | high polyreactivity
18 | RVQLVESGGGLVQAGGSLRLSCAASGRTFVNYAMGWYRQAPGKEREFVAAITNGGRTNYADSVKGRFTISRDNAKNTVYLQMNSLQPEETEVYYCAARYRFGGIRRYNYWGQGTQVTVSS | high polyreactivity
19 | QVQLVESGGGLVQAGGSLRLSCAASGIIFPRYALGWYRQAPGKERELVAAITIGGRTNYADSVKGRFTISRDNAKNTVYLQMNSLKPEDPAVYYGAAQTYVPYYEYDYWGQGTQVTVSS | low polyreactivity
20 | QVQLVESGGGLVQAGGSLSLSCAASGRIFYVNTMGWYRQAPGKERELVATISSAASTNYADSVKGRFTISRDNAKNTVYLQMNSLKPEDTAVYYCNAAFYKEYYYWGQGTQVTVSS | low polyreactivity
21 | QDQLVESGGGLVQAGASLRLICAASGFIFPSYAMGWYRKAPGKERELVAAISWTGGTYYADSVKGRFTISRDNAKNTVYLQMNSLKPEDTAVYYGAVRYKRKGSGYRTNAYDYWGQGTQVSVSS | high polyreactivity
22 | QVQLVESGGGLVQAGGSLRISCAASGNIFDIYAMGWYRQAPGKERELVAAITSGVRTYYADSVKGRFTISRDNAKNTVYLQMNSLKPEDTSVYYCNAVWRRSHAYGYWGQGTQVTVSS | low polyreactivity

Row | Sequence | polyreactivity (PSR sort gate)
23 | QVQLVESGGGLVQAGGSLRLSCAASGSIFSDYAMGWYRQAPGKETELVAGISSGGGTTYADSVKGRFTISRDNAKNTVYLQMNSLKPEDTAVYYCNKQDQPVGRSGYPYGYDYWGQGTQVTVSS | low polyreactivity
24 | QVQLVESGGGLVQAGGSLRLSCAASGRIIIYNAMGWYRQAPGKERQLVAAINRSGVSTHYADSVKGRFTISRDNAKNTVYLQMNSLKPEDTAVYYCARTVYGARSYDYWGQGTQVTVSS | low polyreactivity
25 | QVQLVESGGGLVQAGVSLRLSCAASGSIFSWNAMGWYRQAPGKERELVATITWNGGRTYYADSVKGRFTISRDNAKNTVYLQMNSLKPEDTAVYYCAARYYVYWTYPYRVLSYYYWGQGTQVTVSS | high polyreactivity
26 | QVQLQESGGGLVQAGGSLRLSCEASGYISLAQTIGWYRQAPGKEREFVASIALGSSTYYTDSVKGSFTISRDKEKTTVYLQMNSLKPAETGVYYCAARVGASYAHDYWGQGTQVTVSS | low polyreactivity
27 | QVQLVESGGGLVQAGGSLRLSCAASGSTFWTNAMGWYRQAPGKERELVAGITDTDNHELRRLCEGRFTISRDNAKNTVYVQMNSLKPEDTAVYYCNADDTYYPLGGITGYDYWGQGTQVTVSS | low polyreactivity
28 | QVQLVESGGGLVQAGGSLRLSCAASGIIFYRYAMGWYRQAPAKERELVAAISRSGGSTYYADSVKGRFTISRDNAKNTVYLQMNSLKPEDTAVYYCAARVRTNYYGSYYYWGQGTQVTVSS | high polyreactivity
29 | QVQLVESGGGLVQAGGSLRLSCAASGTFFGYAMGWYRQAPGKERELVAAITSGGSTYYADSVKGRFTISRDNAKNTVYLQMNSLKPEVTAVYYCARVYSRWSYRYDYWGQGTQVTVSS | low polyreactivity
30 | QVQLGESGGGLVQAGGSLRLSCAASGRTFILNAMGWYRQAPGKERELVAAISWSGGSTYYADSVKGRFTISRDNAKNTVYLQMNSLKPEDTAVYYCAAVTYAYLFHTYDYWGQGTQVTVSS | low polyreactivity
31 | QVQLVESGGGLVQAGGSLRLSCAASGFNSDWYAMGWSRQAPGKERELVATIDWIGGSTYADSVKGRFTISRDNAKNTVFLQMNSLKPEDTAVYYCAADSYFIAWYGAHYAYDYWGQGTQVTVSS | low polyreactivity
32 | QVQLVESGGGLVQAGGSLRLICAASAFNFRYYVMGWYRQAPGKERELVAVISYSGGSTYYADSVKGRFTISRDNAKNTVYLQRNSMKPEDTAVYYCDARYYVATSSIYYYWGQGTQVTVSS | high polyreactivity
33 | QVQLVESGGGLVQAGGSLRLSCAASGFNFGYYAMGWYRQAPGKERELVAAITSRGGSTYYADSVKGRFTISRDNAKNTDYLQMNSLKPEDTAVYYLAAYSQYLKRDYWGQGTQVTVSS | high polyreactivity
34 | QVQLVESGGGLVQEGGSLRLICAASGRTFRHNVMGWYRQAPGKQRELVAAISYSGGSTHYADSVKGRFTISRDNAKYTVYLQMNSLKPVDTAVYYCNRYSYDSHFLYPFRGHDYWGQGTQVTVSS | low polyreactivity
35 | QVQLVESAGGLVQAGGSLRLSCPASGSIFQPYAMGWYRQAPGKERELVAAINGRGGSTHYADSVKGRFTISRDNAKNTVYLQMNSLKPEDTAVYYCAARYYRDYRWYTYAYDYWGQGTQVTVSS | high polyreactivity
36 | QVQLVESGVGLVQAGGSLRLSCAASGSSFTSNAMGSYRQAPGKEREFVAAISVGGGITYYADSVKGRFTISRDNAKNTVYLQMYSLKPEDTAVYYCAADGEYPHSEDFEYWGQGTQVTVSS | low polyreactivity
37 | QVQLVESGGGLVQAGGSLRLSCAASGRIFQYNAMGWYRQAPGKERELVAAIRRGGGSTYYADSVKGRFTISRDNAKNTVYLEMNSLKPEDTAVYYCAARRIRVSFYPEYDYWGQGTQVTVSS | low polyreactivity
38 | QVQLVESGGGLVQAGGSLRLSCDASGAIFFSYAMRSYREAPGKERELVATITAGGGSTNYADSVKGRFTISRDNAKNTVYLQMNSLKAEDTAVYYSAAKRLSWHRYGYWGQGSQVTVSS | low polyreactivity
39 | QVQLVESGGGLVQAGGSLRLSCAASGFIFVWYAMGWYRQAPGKERELVAGITASGGSTYYADSVKGRFTISRDNAKNTVYLQMNSLKPEDTAVYYCAADAWPLWLKLTPTSGGYWGQGTQVTVSS | low polyreactivity
40 | QVQLVESGGGLVQAGGRLSLSCAASGSIFRNNTMGWYRQAPGKERELVAAISGRGTPTSYADSVKGRFTISRDNAKNTVYLQMNSLKPEDTAVYYCAAVYYWRPGWYVRFDYWGQGTQVTVSS | low polyreactivity
41 | QVQLQESGGGLVQAGGSLRLSCAASGTISDSGLKGWYRQAPGIERELVAGISSGGITNYADSVKGRFTISRDNAQNTVYLQMNSLKPVDTAVYWGQGTQLTVSS | low polyreactivity
42 | QVQLVESGGGLVQAGGSLRLSCAASGYTFAGNAMGWYRQATGKERELVAAISRSGGRTYYADSVKGRFTISRDNAKNTVYLQMNSLKPEDTAVYYCAAYFPRTLFEFGYWGQGTQVTVSS | high polyreactivity
43 | QVQLVESGGGLVQAGGSLRLICAASGSTLYRNAMGWYRQARGKERELVAAISSSGGTTFYADSVKGRFTISRDNAKNTVYLQMNSLKPEDTAVYYCNRTARKLLTVHSSVVGLDYWGQGSQVTVSS | low polyreactivity
